The target in the data set is T1, GST-ZmRR8 DNA-binding domain (Zea mays, UniProt Q9AV93 191-262).
T1 sequence: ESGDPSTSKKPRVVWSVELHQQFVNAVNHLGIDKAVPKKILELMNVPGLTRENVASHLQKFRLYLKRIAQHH
Description: EMSA; 1x LightShift Binding Buffer, 50 ng/uL poly(dI/dC), 2.5% glycerol, room temperature 20 min, 6% DNA retardation gel; pH and salt not given. As to conditions: protein: recombinant; tags: GST (pET-60-DEST). (Mobility shift assays separate free from complexed probe on a gel.)

The results in this text go back to article PMC8062686, “Structural variation at the maize WUSCHEL1 locus alters stem cell organization in inflorescences”.

B1: m119 bp (three AGATAT to TTTTTT) (dsDNA)
DNA 1: TAATTTTTTCGTCGTATCCCATGATCCTTCGTGTGTCAACTTCACTTGTCTCTCTCCAAATTTTTTCGTCGTATCCCATGATCCTTCCTCCCCTCCAAATTTTTTCGTCGTATCACAGTA
DNA 2: TACTGTGATACGACGAAAAAATTTGGAGGGGAGGAAGGATCATGGGATACGACGAAAAAATTTGGAGAGAGACAAGTGAAGTTGACACACGAAGGATCATGGGATACGACGAAAAAATTA
In the case of B1, the binding result was “no binding”.
